Laboratory results published in patent publication US8323941B2, “Histone demethylation mediated by the nuclear amine oxidase homolog LSD1” (President and Fellows of Harvard College, priority 2004, dated 2012).
One block for each molecule: values may come before it.

How the values were obtained:
GST-LSD1 = molecular target: T1, GST-LSD1 (Homo sapiens, UniProt O60341); test: GST pulldown of HIS-tagged CoREST and mutants; type: binding; conditions: Coomassie Blue staining
T1 construct: made in house; host or cells: bacteria (inferred from 'similar procedure' to the His-tagged proteins)
Procedure: To identify domains of CoREST that are involved in physical interactions with LSD1, GST-LSD1 or GST was incubated with bacterially purified, HIS-tagged CoREST and its mutant derivatives. […] This places the putative LSD1-binding domain within the C-terminal functional domain of CoREST, somewhere between aa 293-381 of CoREST. […] We therefore speculate that the SANT2 domain may be involved in mediate binding to the nucleosomal substrate. Taken together, these findings are consistent with the idea that CoREST functions as a bridging protein. The weak stimulatory activity of the N-terminal CoREST (del1, aa 1-293) remains unclear at the present time.
GST and GSTLSD1 plamsids were kind gifts from Dr. Tadashi Baba's Lab in Japan (Iwase et al., 2004). Expression and purification of GST and GSTLSD1 proteins were done using similar procedure as outlined for purification of his-tagged recombinant proteins. For GST-bead pulldown experiment, 2 μg of each purified his-tagged wt or del CoREST proteins were incubated with 5 μg of bound GST and GSTLSD1 proteins at 4° C. for 4 hrs in a binding buffer (50 mM Tris, pH 8.0, 300 mM NaCl, 1 mM DTT, 0.5 mM EDTA and 0.1% NP-40). The beads were washed 3 times in the binding buffer, resuspended in 2×SDS protein sample buffer, boiled for 5 mins and loaded onto 15% SDS PAGE gel. The gel was then stained with Coomassie Blue.

LSD1 = molecular target: T2, LSD1 (Homo sapiens, UniProt O60341); test: LSD1 demethylation assay on nucleosomal substrates (mononucleosomes), Western blotting; type: biochemical; conditions: CoREST deletion mutant
T2 construct: Full length (1-851aa) and C-terminal deleted (1-427 aa) human LSD1 cDNAs; 6xHis (N); made in house; host or cells: bacteria
Procedure: Preparation of mononucleosome. Mononucleosome was made according to a standard protocol (Tagami et al., 2004; Utley et al., 1996). Briefly, nuclear pellet from both TSA-treated or non-treated HeLa cells was homogenized for 60 times with type A pestle to obtain oligo-nucleosomes. The oligo-nucleosomes were then digested with micrococcal nuclease (40 units/mL) for 10 mins at 30° C. The nuclease is inactivated by 5 mM EDTA. Digested materials were spun at 14000 rpm for 3 mins. Resulting supernatant was spun again for additional 3 mins at the same speed. Supernatant from the second spin was subject to 10-25% glycerol gradient sedimentation. The monocleosome-containing fractions were identified by examining aliquots of fractions (treated with proteinase K) on DNA agarose gel. An aliquot of TSA-treated or non TSA-treated mononucleosome, a kind gift from Dr. Yoshihiro Nakatani's Lab in Dana Faber Cancer Institute, Harvard Medical School (Tagami et al., 2004), was used here as a control for the quality of mononucleosome made in our lab.
Demethylation assay. LSD1 demethylation activity on free histone or nucleosomal histone was carried out as previously reported (Shi et al., 2004). […] The demethylase activity of LSD1 under various conditions was evaluated by Western blotting using K4-H3 methylation-specific antibodies.

binding to LSD1 (GST-LSD1): did not
stimulatory activity on LSD1 demethylation (LSD1): ~30 % of the wildtype CoREST activity
B1: del 1: CoREST deletion mutant aa 1-293 (protein)
chain: MVEKGPEVSGKRRGRNNAAASASAAAASAAASAACASPAATAASGAAASSASAAAASAAAAPNNGQNKSLAAAAPNGNSSSNSWEEGSSGSSSDEEHGGGGMRVGPQYQAVVPDFDPAKLARRSQERDNLGMLVWSPNQNLSEAKLDEYIAIAKEKHGYNMEQALGMLFWHKHNIEKSLADLPNFTPFPDEWTVEDKVLFEQAFSFHGKTFHRIQQMLPDKSIASLVKFYYSWKKTRTKTSVMDRHARKQKREREESEDELEEANGNNPIDIEVDQNKESKKEVPPTETVPQV
modifications: left off: small tags and cut ends

binding to LSD1 (GST-LSD1): did not
B2: del 4: CoREST deletion mutant aa 105-293 (protein)
chain: GPQYQAVVPDFDPAKLARRSQERDNLGMLVWSPNQNLSEAKLDEYIAIAKEKHGYNMEQALGMLFWHKHNIEKSLADLPNFTPFPDEWTVEDKVLFEQAFSFHGKTFHRIQQMLPDKSIASLVKFYYSWKKTRTKTSVMDRHARKQKREREESEDELEEANGNNPIDIEVDQNKESKKEVPPTETVPQV
modifications: left off: small tags and cut ends
